Positions count from the first letter of the chain named. Values belong to the molecule of their own block, whether it stands above or below them.
How the values were obtained:
AP-MAG = test: Binding of AP-MAG to COS-7 cells expressing NgR mutants; design: key: ++: WT level; +: weaker than wild type; trace binding; −: no binding; conditions: AP-MAG 30 nM; level of binding compared to wild type NgR
Experimental: (§1) FIG. 4A. […] Binding of AP or AP fused NgR ligands to COS-7 cells expressing different NgR mutants as indicated. The concentrations of ligands applied were: AP, 30 nM; AP-Ng66, 5 nM; AP-Ng33, 10 nM; AP-B4C, 10 nM; AP-B4C66, 0.5 nM; AP-Lingo-1, 10 nM; AP-OMGP, 10 nM; AP-MAG, 30 nM. These concentrations are close to the binding Kd of these proteins to NgR so that any […] is reflected linearly in staining.
(§2) FIG. 4B. AP binding of NgR ligands to NgR mutants expressed as percentage of wild type NgR. AP after incubation with AP fused ligands, AP bound to COS-7 cells expressing NgR or NgR mutants were stained and measured.
(§3) To better define how multiple ligands bind to the NgR protein, we examined a series of Ala-substituted NgR for ligand binding activity. NgR mutagenesis was done using the Quick Change Multisite Directed Mutagenesis Kit (Stratagene catalog #200514). Human NgR1 was used as a template. Ala substitutions were generated for each of the charged residues predicted to be solvent accessible at the surface of the ligand binding domain of NgR (Barton, W. A., et al., Embo J. 22:3291-3302 (2003); He, X. L., et al., Neuron 38:177-185 (2003)). We generated mutants in which 1-8 surface residues localized within 5 A of one another were Ala-substituted. Because of the coiling nature of the LRR structure, as residues juxtaposed on the protein surface are commonly separated by approximately 25 residues in the primary structure. In addition to mutations in specific charged surface patches, other mutations were targeted to glycosylation sites and to regions predicted to be involved in ligand binding based on the NgR structure (Barton, W. A., et al., Embo J. 22:3291-3302 (2003); He, X. L., et al., Neuron 38:177-185 (2003)). In addition, a variant corresponding to a human polymorphism was examined (D259N). None of the mutations altered the Leu residues that define the LRR structure itself or the Cys residues critical in the amino and carboxyl terminal capping domains. The vast majority of such Ala surface substitution mutants were expressed as immunoreactive polypeptides with a molecular weight and an expression level indistinguishable from wild type NgR (FIG. 4C and data not shown).
(§4) This collection of 74 individual NgR mutants was interrogated for AP-Nogo-66, AP-Amino-Nogo-B4C, AP-MAG, AP-OMgp, and AP-Lingo-1 binding. AP-Nogo66, AP-MAG, AP-OMGP and AP-Lingo-1 constructs are described elsewhere (Fournier, A. E., et al., Nature 409:341-346 (2001); Liu, B. P., et al., Science 297:1190-1193 (2002); Mi, S., et al., Nat. Neurosci. 7:221-228 (2004); Wang, K. C., et al., Nature 417:941-944 (2002b)). The properties of the NgR mutants fell into one of three major categories (Table II and FIG. 5). A number of Ala substituted NgR polypeptides bound all of the ligands at wild type levels. […] In addition, a significant extent of the concave surface is dispensable for ligand binding.
(§5) Binding of Alanine substituted NgR mutants to NgR ligands were compared to wild type NgR and the levels of binding were categorized as ++ (WT level), + (weaker than wild type), tr (trace binding), − (no binding), N/A (not determined). NgR mutant proteins were also subjected to SDS-PAGE and probed by anti-NgR antibodies. Mutants with expression level similar to WT NgR were labeled as “y”.

AP-Lingo-1 = biological target: T1, AP-Lingo-1 (Homo sapiens, UniProt Q96FE5); test: Binding of AP-Lingo-1 to COS-7 cells expressing NgR mutants; design: key: ++: WT level; +: weaker than wild type; trace binding; −: no binding; conditions: AP-Lingo-1 10 nM; level of binding compared to wild type NgR
T1 construct: made in house; NgR mutants: COS-7
T1 sequence (Q96FE5 40-538 limits assumed): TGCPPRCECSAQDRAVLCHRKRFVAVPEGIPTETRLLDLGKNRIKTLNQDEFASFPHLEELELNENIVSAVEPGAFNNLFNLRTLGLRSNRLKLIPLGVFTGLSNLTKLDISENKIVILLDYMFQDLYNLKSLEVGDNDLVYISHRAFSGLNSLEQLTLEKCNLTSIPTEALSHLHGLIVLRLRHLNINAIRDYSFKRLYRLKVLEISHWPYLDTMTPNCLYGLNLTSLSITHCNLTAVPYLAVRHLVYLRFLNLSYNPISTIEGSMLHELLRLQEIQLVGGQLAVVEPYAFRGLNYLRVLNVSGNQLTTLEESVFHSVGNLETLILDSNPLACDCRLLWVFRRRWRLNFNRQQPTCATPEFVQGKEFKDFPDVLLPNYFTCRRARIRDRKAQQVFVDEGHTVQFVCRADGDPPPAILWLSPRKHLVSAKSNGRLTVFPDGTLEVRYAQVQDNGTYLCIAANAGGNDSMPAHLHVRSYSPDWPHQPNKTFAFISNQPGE
Experimental: as §1, §2, §3, §4, §5

AP-Nogo66 = biological target: T2, AP-Nogo66 (Homo sapiens, UniProt Q9NQC3); test: Binding of AP-Nogo66 to COS-7 cells expressing NgR mutants; design: key: ++: WT level; +: weaker than wild type; trace binding; −: no binding; conditions: AP-Ng66 5 nM; level of binding compared to wild type NgR
T2 construct: made in house; NgR mutants: COS-7
T2 sequence (Q9NQC3 1055-1120 limits assumed): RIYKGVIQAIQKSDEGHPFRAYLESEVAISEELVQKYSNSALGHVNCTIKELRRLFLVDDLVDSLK
Experimental: as §1, §2, §3, §4, §5

AP-B4C = biological target: T3, AP-B4C (Homo sapiens, UniProt Q9NQC3); test: Binding of AP-B4C to COS-7 cells expressing NgR mutants; design: key: ++: WT level; +: weaker than wild type; trace binding; −: no binding; conditions: AP-B4C 10 nM; level of binding compared to wild type NgR
T3 construct: a.a; 950-1018 (AmNg B4C); made in house; host or cells: AP ligand: HEK293T conditioned medium; NgR mutants: COS-7
T3 sequence (Q9NQC3 950-1018): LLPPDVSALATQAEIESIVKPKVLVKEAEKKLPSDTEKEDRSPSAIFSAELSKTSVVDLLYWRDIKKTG
Experimental: as §1, §2, §3, §4, §5

AP-B4C66 = test: Binding of AP-B4C66 to COS-7 cells expressing NgR mutants; design: key: ++: WT level; +: weaker than wild type; trace binding; −: no binding; conditions: AP-B4C66 0.5 nM; level of binding compared to wild type NgR
Experimental: as §1, §2, §3, §4, §5

NgR ligands = test: Binding of alanine substituted NgR mutants to NgR ligands, summary categories; conditions: AP-Nogo66, AP-B4C, AP-B4C66, AP-Lingo-1, AP-OMgp and AP-MAG; compared to wild type NgR
Outline: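 AP-fused ligands (Nogo66, B4C, B4C66, Lingo-1, OMgp, MAG) were assayed against 74 Ala-substitution mutants of human NgR1 targeting surface charged patches, glycosylation sites and predicted binding regions, plus the D259N variant. Outcomes were grouped into categories: binding lost for all ligands, retained for all, or ligand-selective.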

AP-OMgp = test: Binding of AP-OMgp to COS-7 cells expressing NgR mutants; design: key: ++: WT level; +: weaker than wild type; trace binding; −: no binding; conditions: AP-OMGP 10 nM; level of binding compared to wild type NgR
Experimental: as §1, §2, §3, §4, §5

B1: 117, 119, 120: human NgR1 mutant, listed residues mutated to alanine (protein)
chain: CPGACVCYNEPKVTTSCPQQGLQAVPVGIPAASQRIFLHGNRISHVPAASFRACRNLTILWLHSNVLARIDAAAFTGLALLEQLDLSDNAALAAVDPATFHGLGRLHTLHLDRCGLQELGPGLFRGLAALQYLYLQDNALQALPDDTFRDLGNLTHLFLHGNRISSVPERAFRGLHSLDRLLLHQNRVAHVHPHAFRDLGRLMTLYLFANNLSALPTEALAPLRALQYLRLNDNPWVCDCRARPLWAWLQKFRGSSSEVPCSLPQRLAGRDLKRLAANDLQGCAVATGPYHPIWTGRATDEEPLGLPKCCQPDAADKASVLEPGRPASAGNALKGRVPPGDSPPGNGSGPRHINDSPFGTLPGSAEPPLTAVRPEGSEPPGFPTSGPRRRPGCSRKNRTRSHCRLGQAGSGGGGTGDSEGSGALPSLTCSLTPLGLALVLWTVLGPC
MAG (AP-MAG): −
Lingo-1 (AP-Lingo-1): tr
Ng66 (AP-Nogo66): ++
B4C (AP-B4C): ++
B4C-66 (AP-B4C66): ++
ligand binding category of NgR mutant (Table II) (NgR ligands): Differential binding
OMgp (AP-OMgp): tr

B2: 87, 89: human NgR1 mutant, listed residues mutated to alanine (protein)
chain: B1 chain with W61A, H63A, A91Q, A93R, A94S
MAG (AP-MAG): +
Lingo-1 (AP-Lingo-1): −
Ng66 (AP-Nogo66): ++
B4C (AP-B4C): ++
B4C-66 (AP-B4C66): ++
ligand binding category of NgR mutant (Table II) (NgR ligands): Differential binding
OMgp (AP-OMgp): +

B3: 89, 90: human NgR1 mutant, listed residues mutated to alanine (protein)
chain: B1 chain with H63A, S64A, A91Q, A93R, A94S
MAG (AP-MAG): −
Lingo-1 (AP-Lingo-1): −
Ng66 (AP-Nogo66): +
B4C (AP-B4C): +
B4C-66 (AP-B4C66): +
ligand binding category of NgR mutant (Table II) (NgR ligands): Differential binding
OMgp (AP-OMgp): −

B5: 63, 65, 87, 89: human NgR1 mutant, listed residues mutated to alanine (protein)
chain: B1 chain with F37A, H39A, W61A, H63A, A91Q, A93R, A94S
MAG (AP-MAG): −
Lingo-1 (AP-Lingo-1): −
Ng66 (AP-Nogo66): ++
B4C (AP-B4C): ++
B4C-66 (AP-B4C66): ++
ligand binding category of NgR mutant (Table II) (NgR ligands): Differential binding
OMgp (AP-OMgp): +

B10: 61, 108, 131: human NgR1 mutant, listed residues mutated to alanine (protein)
chain: B1 chain with R35A, E82A, A91Q, A93R, A94S, R105A
MAG (AP-MAG): −
Lingo-1 (AP-Lingo-1): −
Ng66 (AP-Nogo66): tr
B4C (AP-B4C): +
B4C-66 (AP-B4C66): +
ligand binding category of NgR mutant (Table II) (NgR ligands): Differential binding
OMgp (AP-OMgp): −

More lines, main results first:

Lingo-1 (AP-Lingo-1): +
Ng66 (AP-Nogo66): tr
B4C (AP-B4C): tr
ligand binding category of NgR mutant (Table II) (NgR ligands): Differential binding
B4: 237, 256, 259: human NgR1 mutant, listed residues mutated to alanine (protein)
chain: B1 chain with A91Q, A93R, A94S, N211A, R230A, D233A
MAG (AP-MAG): −
B4C-66 (AP-B4C66): +
OMgp (AP-OMgp): tr

Lingo-1 (AP-Lingo-1): +
Ng66 (AP-Nogo66): ++
B4C (AP-B4C): ++
ligand binding category of NgR mutant (Table II) (NgR ligands): Differential binding
B6: 216, 218, 220: human NgR1 mutant, listed residues mutated to alanine (protein)
chain: B1 chain with A91Q, A93R, A94S, H190A, H192A, H194A
MAG (AP-MAG): tr
B4C-66 (AP-B4C66): ++
OMgp (AP-OMgp): +

Lingo-1 (AP-Lingo-1): ++
Ng66 (AP-Nogo66): ++
B4C (AP-B4C): ++
ligand binding category of NgR mutant (Table II) (NgR ligands): Differential binding
B7: 237, 256, 284: human NgR1 mutant, listed residues mutated to alanine (protein)
chain: B1 chain with A91Q, A93R, A94S, N211A, R230A, E258A
MAG (AP-MAG): −
B4C-66 (AP-B4C66): ++
OMgp (AP-OMgp): +

Lingo-1 (AP-Lingo-1): −
Ng66 (AP-Nogo66): +
B4C (AP-B4C): +
ligand binding category of NgR mutant (Table II) (NgR ligands): Differential binding
B8: 220, 223, 224: human NgR1 mutant, listed residues mutated to alanine (protein)
chain: B1 chain with A91Q, A93R, A94S, H194A, R197A, D198A
MAG (AP-MAG): tr
B4C-66 (AP-B4C66): +
OMgp (AP-OMgp): −

Lingo-1 (AP-Lingo-1): ++
Ng66 (AP-Nogo66): +
B4C (AP-B4C): +
ligand binding category of NgR mutant (Table II) (NgR ligands): Differential binding
B9: 256, 259, 284: human NgR1 mutant, listed residues mutated to alanine (protein)
chain: B1 chain with A91Q, A93R, A94S, R230A, D233A, E258A
MAG (AP-MAG): −
B4C-66 (AP-B4C66): ++
OMgp (AP-OMgp): +

Source: patent US20090111753A1, “Nogo-A Polypeptide Fragments, Variant Nogo Receptor-1 Polypeptides, and Uses Thereof” (Yale University, priority 2004, published 2009)
